Source: patent publication US20210393745A1, “OLIGOMER EXTENDED INSULIN-FC CONJUGATES AND THEIR MEDICAL USE” (Novo Nordisk A/S, priority 2018, published 2021)

Assays:
[1] = molecular target: human insulin receptor isotype B (human) (UniProt P06213); assay: SPA competition with [125I-A14Y]-human insulin, membrane-associated human IR-B; relative to human insulin standard
[2] = molecular target: T1, human insulin receptor isotype A (human, UniProt P06213-2); assay: SPA competition with [125I-A14Y]-human insulin, solubilised human IR-A; relative to human insulin (100%)
[3] = molecular target: T1, human insulin receptor isotype A; assay: SPA competition with [125I-A14Y]-human insulin, membrane-associated human IR-A; relative to human insulin standard
Method: (§1) Membrane-associated human IR and IGF-1R are purified from BHK cells stably transfected with the pZem219B vector containing either the human IR-A, IR-B or IGF-IR insert. BHK cells are harvested and homogenized in ice-cold buffer (25 mM HEPES pH 7.4, 25 mM CaCl₂ and 1 mM MgCl₂, 250 mg/L bacitracin, 0.1 mM Pefablock). The homogenates are layered on a 41% (w/v) sucrose cushion and centrifuged for 75 minutes at 95000 g at 4° C. The plasma membranes are collected, diluted 1:5 with buffer (as above) and centrifuged again for 45 minutes at 40000 g at 4° C. The pellets are resuspended in a minimal volume of buffer and drawn through a needle (size 23) three times before storage at −80° C. until usage. The relative binding affinity for either of the membrane-associated human IR-A, IR-B or IGF-1R is determined by competition binding in a SPA setup. IR assays are performed in duplicate in 96-well OptiPlates (Perkin-Elmer Life Sciences). Membrane protein is incubated with gentle agitation for 150 minutes at 25° C. with 50 pM [¹²⁵IA14Y]-human insulin in a total volume of […] assay buffer (50 mM HEPES, 150 mM NaCl, 5 mM MgSO4, 0.01% Triton X-100, 0.1% (w/v) HSA (Sigma A1887), Complete EDTA-free protease inhibitors), 50 μg of wheat germ agglutinate (WGA)-coated PVT microspheres (GE Healthcare) and increasing concentrations of ligand. Assays are terminated by centrifugation of the plate at 2000 rpm for 2 minutes and bound radioactivity quantified by counting on a TopCount NXT (Perkin-Elmer Life Sciences).
(§2) IGF-1R assays are conducted essentially as for the IR binding assays except that membrane-associated IGF-1R and 50 pM [¹²⁵I-Tyr31]-human IGF-1 were employed.

[4] = molecular target: human insulin-like growth factor-1 receptor (human, UniProt P08069); assay: SPA competition with [125I-Tyr31]-human IGF-1, membrane-associated human IGF-1R; relative to human insulin standard
Method: as §1, §2

hFcRn ectodomain = hFcRn ectodomain (human, UniProt P55899); assay: SPR (Biacore 4000), conjugate immobilised by amine coupling, hFcRn ectodomain as analyte, pH 6.0, 25 C, steady-state fit

| Molecule | Rel. aff. (%) [1] [%] | Insulin receptor affinity [IC50 relative to HI (%)] [2] [%] | Rel. aff. (%) [3] [%] | Rel. aff. (%) [4] [%] | Kd (hFcRn ectodomain) [nM] |
| --- | --- | --- | --- | --- | --- |
| (A14E, A21G, A22(GQEP)11, A66G, A67Q, A68E, A69K^, A70P, B16E, B25H, B29R, desB30 human insulin)/(226A, 227G, 228P, 234A, 235K, 297E, 315Q, 384Q, des447 hIgG4-Fc(226-447))3,5-bis[(2-acetyl)amino]benzoyl conjugate | 0.59 | – | – | – | – |
| (A14E, A21G, A22(GQEP)11, A66G, A67Q, A68E, A69K^, A70P, B16H, B25H, B29R, desB30 human insulin)/(226A, 227G, 228P, 234A, 235K, 297E, 315Q, 384Q, des447 hIgG4-Fc(226-447))3,5-bis[(2-acetyl)amino]benzoyl conjugate | 1.26 | – | – | – | – |
| (A14E, A21G, A22(GQEP)12, A70K^, A71P, B25H, B29R, desB30 human insulin)/(226A, 227G, 228P, 234A, 235K, 297E, 315Q, 384Q, des447 hIgG4-Fc(226-447))3,5-bis[(2-acetyl)amino]benzoyl conjugate | 3.05 | – | – | – | – |
| (A14E, A21G, A22(GQEP)12, A70K^, A71P, B25H, B29R, desB30 human insulin)/(226A, 227G, 228P, 234A, 235K, 297E, 315Q, 384Q, des447 … (other, epsilon amino group of Lys A70 (A70K) carries the trivalent linker 3,5-bis[(2-acetyl)amino]benzoyl, which bridges to Cys229 of both Fc polypeptides; ; thiol of Cys229 (EU numbering) linked to -C(O)-CH2- of the linker; aglycosylated (made in E. coli)) chain 1: GIVEQCCTSICSLEQLENYCGGQEPGQEPGQEPGQEPGQEPGQEPGQEPGQEPGQEPGQEPGQEPGQEPKP chain 2: FVNQHLCGSHLVEALYLVCGERGFHYTPR chain 3: AGPCPAPEAKGGPSVFLFPPKPKDTLMISRTPEVTCVVVDVSQEDPEVQFNWYVDGVEVHNAKTKPREEQFESTYRVVSVLTVLHQDWLQGKEYKCKVSNKGLPSSIEKTISKAKGQPREPQVYTLPPSQEEMTKNQVSLTCLVKGFYPSDIAVEWESQGQPENNYKTTPPVLDSDGSFFLYSRLTVDKSRWQEGNVFSCSVMHEALHNHYTQKSLSLSLG | – | 4.5 | 2.97 | 0.91 | 1500 |
| (A14E, A21G, A22(GQEP)11, A66G, A67Q, A68E, A69K^, A70P, B16H, B25H, B29R, desB30 human insulin)/(226A, 227G, 228P, 234A, 235K, 297E, 315Q, 384Q, des447 … (other, epsilon amino group of Lys A69 (A69K) carries the trivalent linker 3,5-bis[(2-acetyl)amino]benzoyl, which bridges to Cys229 of both Fc polypeptides; ; thiol of Cys229 (EU numbering) linked to -C(O)-CH2- of the linker; aglycosylated (made in E. coli)) chain 1: GIVEQCCTSICSLEQLENYCGGQEPGQEPGQEPGQEPGQEPGQEPGQEPGQEPGQEPGQEPGQEPGQEKP chain 2: FVNQHLCGSHLVEALHLVCGERGFHYTPR chain 3: AGPCPAPEAKGGPSVFLFPPKPKDTLMISRTPEVTCVVVDVSQEDPEVQFNWYVDGVEVHNAKTKPREEQFESTYRVVSVLTVLHQDWLQGKEYKCKVSNKGLPSSIEKTISKAKGQPREPQVYTLPPSQEEMTKNQVSLTCLVKGFYPSDIAVEWESQGQPENNYKTTPPVLDSDGSFFLYSRLTVDKSRWQEGNVFSCSVMHEALHNHYTQKSLSLSLG | – | 1.6 | 1.27 | 0.1 | 1600 |
| (A14E, A21G, A22(GQEP)11, A66G, A67Q, A68E, A69K^, A70P, B16E, B25H, B29R, desB30 human insulin)/(226A, 227G, 228P, 234A, 235K, 297E, 315Q, 384Q, des447 … (other, epsilon amino group of Lys A69 (A69K) carries the trivalent linker 3,5-bis[(2-acetyl)amino]benzoyl, which bridges to Cys229 of both Fc polypeptides; ; thiol of Cys229 (EU numbering) linked to -C(O)-CH2- of the linker; aglycosylated (made in E. coli)) chain 1: GIVEQCCTSICSLEQLENYCGGQEPGQEPGQEPGQEPGQEPGQEPGQEPGQEPGQEPGQEPGQEPGQEKP chain 2: FVNQHLCGSHLVEALELVCGERGFHYTPR chain 3: AGPCPAPEAKGGPSVFLFPPKPKDTLMISRTPEVTCVVVDVSQEDPEVQFNWYVDGVEVHNAKTKPREEQFESTYRVVSVLTVLHQDWLQGKEYKCKVSNKGLPSSIEKTISKAKGQPREPQVYTLPPSQEEMTKNQVSLTCLVKGFYPSDIAVEWESQGQPENNYKTTPPVLDSDGSFFLYSRLTVDKSRWQEGNVFSCSVMHEALHNHYTQKSLSLSLG | – | 0.4 | 0.66 | 0.29 | 1500 |
